Source: patent US12291578B2, “Anti-matrix metalloproteinase 7 (MMP-7) inhibitory antibody and uses thereof” (Yeda Research and Development Co. Ltd., priority 2019, dated 2025)
“Also recorded” adds a separate entry of the source. Read-outs that look alike come from different tables or passages of the source.

Columns and labels:
AsPC-1 cells [1] = test: Gemcitabine co-treatment, MTT cell death assay; assay type: cell-based; settings: Homo sapiens, ASPC1, 72 h
Method: Gemcitabine co-treatment: 10,000 AsPC-1 cells/well were seeded into 96 well flat bottom plate and incubated overnight at in a humidified incubator at 37° C. with 5% CO2. Media in wells were replaced by serum free RPMI medium containing 2.33 μM GSM-192 or PBS and 0.05, 0.1, 0.5, 1, 5, 10, 40 and 80-μM gemcitabine. The plates were further incubated for 72 hours in a humidified incubator at 37° C. with 5% CO2. MTT solutions (M5655 SIGMA) was added at 10% of total culture volume (0.5 mg/ml MTT in RPMI/IMDM without phenol red) and after 3 hours incubation, plate was washed with PBS and solubilized using MTT solvent (0.1 N HCl in anhydrous isopropanol). The read out was obtained at […]. Cell death data was plotted as a function of the log of Gemcitabine concentration and fitted on a variable slope sigmoidal regression model (GraphPad prism 8.3.0). Further, an average of IC50 from 3 experimental repeats and corresponding standard deviation was calculated.

AsPC-1 cells [2] = test: FACS Annexin-V apoptosis detection assay; assay type: cell-based, human; settings: AsPC-1, 24 h, increasing dose
Method: FACS Annexin-V apoptosis detection assay: 70% confluent cells in 6 cm plates were treated with sterile GSM-192 Fab fragment/control anti LOXL-2 Fab fragment for 24 h and prepared for FACS using the Annexin-V FITC apoptosis detection kit (E Biosciences 88-8005-72) as described previously^53. The FACS acquisition was done using FACS LSR-II machine in Cell Quant software (Becton Dickinson) and further analysis on FlowJo software (Treestar, Inc., San Carlos, Calif.).

MMP-14 = MMP-14 (Homo sapiens, UniProt P50281); test: Enzymatic activity of related MMPs (fluorogenic peptide); assay type: biochemical; settings: in vitro
Method: (§1) MMP-7 enzymatic kinetic assay: The enzymatic activity of MMP-7 in the presence of GSM-192 Fab was measured at 37° C. by monitoring the hydrolysis of fluorogenic peptide Mca-Pro-Leu-Gly-Leu-Dpa-Ala-Arg-NH2 (SEQ ID NO: 10) at λex=340 nm and […] as described previously^30. A range of different concentrations of GSM-192 Fab (0-200 nM) were incubated with 10 nM of MMP-7 in 50 mM Tris-HCl buffer (pH 7.5 at 37° C.), 100 mM NaCl, 5 mM CaCl2, and 0.05% Brij-35 for 2 h at 37° C. The enzymatic reaction was initiated by addition of the fluorogenic peptide to a final concentration of 10 μM. Fluorescence was recorded immediately and continuously for 30 min.
(§2) Remarkably, considering that the immunization booster also included the common zinc motif, the antibody is fully selective for MMP-7. The effect of GSM-192 Fab fragment on the enzymatic activity of human MMP-7 was examined in vitro using a short fluorogenic peptide according to a standard protocol. The enzymatic activity of recombinant active MMP-7 was measured in the presence of increasing concentrations of the Fab fragment of GSM-192. […] Simultaneously the effect of the antibody on catalytic activity of related MMPs was measured.

MMP-9 = MMP-9 (Homo sapiens, UniProt P14780); test: as above; assay type: biochemical; settings: in vitro
Method: as §1, §2

MMP-12 = MMP-12 (Homo sapiens, UniProt P39900); test: as above; assay type: biochemical; settings: in vitro
Method: as §1, §2

FasL in AsPC-1 cells = test: Western blot of FasL expression in cell lysates; assay type: cell-based, human; settings: AsPC-1 cell lysates, 24 hours, sub lethal concentrations
Method: Western Blots: Treated cells were lysed with RIPA buffer containing protease inhibitors and shaken intermittently while stored in ice for 30 min. The debris was removed by centrifugation at 14,000×g and supernatant was used for BCA protein determination assay. Alternatively, culture supernatants were concentrated at least 10 times using 0.2 μm centricons. Once normalized to equal protein content, sample buffer was added and heated for 3 minutes at 95° C. The denatured samples were centrifuged for 5 min at 14,000×g before 25 μL was loaded onto SDS page gel and standard blotting procedures were followed (General Protocol for Western Blotting, BioRad bulletin 6376). Primary Abs used were MMP-7 (abcam, ab5706), Fas-L (abcam, ab15285), α Tubulin Ab (sc31779).
Anti LOXL-2 (Lysyl Oxidase like 2) mAb33, produced in a similar pipeline was used as an isotype control. […] To test for molecular markers of apoptosis, Fas ligand expression was analysed by Western blot analysis. AsPC-1 cells were treated with GSM-192 Fab for 24 hours at sub lethal concentrations.

Chain of MMP-9 (P14780 94-707, species assumed): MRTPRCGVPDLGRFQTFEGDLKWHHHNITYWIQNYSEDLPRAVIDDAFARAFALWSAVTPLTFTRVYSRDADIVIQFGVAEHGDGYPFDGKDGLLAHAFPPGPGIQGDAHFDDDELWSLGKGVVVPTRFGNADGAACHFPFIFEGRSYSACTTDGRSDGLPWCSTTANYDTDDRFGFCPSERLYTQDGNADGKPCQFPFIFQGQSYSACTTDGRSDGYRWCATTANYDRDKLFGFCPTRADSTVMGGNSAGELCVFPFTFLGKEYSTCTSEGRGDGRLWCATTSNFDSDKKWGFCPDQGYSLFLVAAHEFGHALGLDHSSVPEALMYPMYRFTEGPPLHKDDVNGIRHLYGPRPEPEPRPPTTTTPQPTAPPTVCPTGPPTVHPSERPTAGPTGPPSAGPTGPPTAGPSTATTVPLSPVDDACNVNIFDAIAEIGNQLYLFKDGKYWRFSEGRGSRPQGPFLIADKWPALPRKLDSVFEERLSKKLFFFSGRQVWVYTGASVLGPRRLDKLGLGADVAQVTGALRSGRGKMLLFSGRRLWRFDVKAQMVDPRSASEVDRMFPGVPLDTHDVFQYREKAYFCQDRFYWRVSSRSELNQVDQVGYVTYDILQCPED
Chain of MMP-12 (P39900 106-470): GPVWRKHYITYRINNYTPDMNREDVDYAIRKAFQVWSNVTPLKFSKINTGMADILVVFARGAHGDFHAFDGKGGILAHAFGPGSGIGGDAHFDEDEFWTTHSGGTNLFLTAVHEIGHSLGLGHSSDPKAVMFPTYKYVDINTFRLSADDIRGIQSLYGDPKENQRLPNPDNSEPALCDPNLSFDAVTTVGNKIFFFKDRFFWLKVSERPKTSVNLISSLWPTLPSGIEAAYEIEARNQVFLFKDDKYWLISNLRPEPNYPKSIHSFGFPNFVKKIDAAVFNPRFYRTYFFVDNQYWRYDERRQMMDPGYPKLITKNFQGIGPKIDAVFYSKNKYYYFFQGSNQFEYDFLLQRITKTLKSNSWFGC

Molecule | IC50 (AsPC-1 cells [1]; GEM+PBS group, 72 hours) | IC50 (AsPC-1 cells [1]; co-treatment with 2.33 uM GSM-192, 72 hours, read-out: IC50 of GEM) | Annexin V related apoptosis (AsPC-1 cells [2]) | effect on catalytic activity of MMP-14 (MMP-14) | effect on catalytic activity of MMP-9 (MMP-9) | effect on catalytic activity of MMP-12 (MMP-12) | FasL expression (FasL in AsPC-1 cells) | FasL expression (FasL in AsPC-1 cells; listed as anti MMP-7 Fab)
Nc1ccn([C@@H]2O[C@H](CO)[C@@H](O)C2(F)F)c(=O)n1 [GEM, gemcitabine] | 127 ± 40.5 nM | 14.2 ± 1.52 nM |  |  |  |  |  | 
GSM-192 Fab: Fab fragment of GSM-192 obtained by papain digestion (antibody, V domains shown) VL: DIVTQSPASLAVSLGQRATISCRASESFDSYGNTFVHWYQQKPGQPPKLLIYLVSNLESGVPAGFRGRGSRTDFTLTIDPVEADDAATYYCQQNNEDPYTFGGGTKLEIKRA VH: EVQLQQSGPELVKPGASVKIPCKASGYTFTDYNMDWMKQSHGKSLEWIGHINPNNGGTFYNQKFKDKATFIVDKSSNTAYMELRSLTSEDTAVYFCARGGGLRRGPFAYWGQGTLVTVS |  |  | induce cell death via apoptosis; also recorded: increased Annexin V related apoptosis | only negligibly affected | not affected | not affected | increase of Fas ligand (FasL) expression | overall increase in FasL levels
